Molecular target: T1, NXF1 (residues 117–619) (human, UniProt Q9UBU9 117-619)
T1 sequence: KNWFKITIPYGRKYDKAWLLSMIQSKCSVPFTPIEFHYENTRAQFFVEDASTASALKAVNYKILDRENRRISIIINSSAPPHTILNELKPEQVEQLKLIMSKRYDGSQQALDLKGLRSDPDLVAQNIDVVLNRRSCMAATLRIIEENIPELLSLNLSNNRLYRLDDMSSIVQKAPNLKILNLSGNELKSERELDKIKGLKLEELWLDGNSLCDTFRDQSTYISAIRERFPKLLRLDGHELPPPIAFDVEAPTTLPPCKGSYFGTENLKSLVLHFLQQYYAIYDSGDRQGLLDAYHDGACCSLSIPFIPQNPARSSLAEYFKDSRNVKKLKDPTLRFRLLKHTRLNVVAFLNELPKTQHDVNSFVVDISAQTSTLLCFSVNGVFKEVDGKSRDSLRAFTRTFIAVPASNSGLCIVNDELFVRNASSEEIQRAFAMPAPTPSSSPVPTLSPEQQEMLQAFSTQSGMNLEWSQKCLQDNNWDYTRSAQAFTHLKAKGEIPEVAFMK
Assay: crystal structure

B1: NXT1 (residues 1–140) (natural protein)
chain: MASVDFKTYVDQACRAAEEFVNVYYTTMDKRRRLLSRLYMGTATLVWNGNAVSGQESLSEFFEMLPSSEFQISVVDCQPVHDEATPSQTTVLVVICGSVKFEGNKQRDFNQNFILTAQASPSNTVWKIASDCFRFQDWAS
binding result: binds
